Patent publication US20120258099A1
Ends that are not written are not given here. GST = glutathione S-transferase tag encoded by vector pGEX-5X2

Assays:
MBP-Tgat (aa 1-255) [1] = molecular target: MBP-Tgat (aa 1-255) (UniProt O75962); experiment: FRET mant-GTP nucleotide exchange kinetics; kobs against GST-TRIP peptide concentration (up to 100 µM), hyperbolic fit; RhoA 1 µM, Tgat 0.5 µM
MBP-Tgat (aa 1-255) [2] = molecular target: MBP-Tgat (aa 1-255) (UniProt O75962); experiment: cell-based or functional assay

| Binder | Ki (MBP-Tgat (aa 1-255) [1]) | efficiency at inhibiting the exchange activity of Tgat, against TRIPα (MBP-Tgat (aa 1-255) [2]) |
| --- | --- | --- |
| {GST}-AREGADGAICGYNLATLVMLGPSERVFCPLCEPCSSDIYELM (peptide, not shown: a dimerising Fc or GST, cysteine pairing not given here; also: fused to GST, GST carrier and linker letters not given here) [GST-TRIPα] | 89 µM | – |
| AREGADGAICGYNLATLVMLGPSERVFCPLCGPCSSDIYELM (peptide, not shown: a dimerising Fc or GST; large carriers; small tags and cut ends, not fully specified (N-terminus); cysteine pairing not given here; also: fused to GST, GST carrier and linker letters not given here) [GST-TRIPE32G] | 7.4 µM | 15 fold |
| AREGADGAICGYNLAMSVMLGPSERVFCPLCEPCSSDIYELM (peptide, not shown: a dimerising Fc or GST; large carriers; small tags and cut ends, not fully specified (N-terminus); cysteine pairing not given here; also: fused to GST, GST carrier and linker letters not given here) [GST-TRIPT16M/L17S] | 5.1 µM | 15 fold |
